Consider one protein from paper PMC5501786.

Substrate in this data set: O=P(O)(O)O[C@H]1O[C@H](CO)[C@@H](O)[C@H](O)[C@H]1O
The experiment in a line: purified protein. The following applies: synthetic direction, glucosyl donor 0.5-10 mM, 20 mM D-glucose, 1 mM MgCl2, 10 mM DTT, Tris-HCl pH 7.5, 60 °C.

Description: Pi release from G-1-P, molybdate assay, Hanes-Woolf plot on TaCDP (initially TaCBP; THA_1941)

B1: TaCDP (initially TaCBP; THA_1941) (Thermosipho africanus TCF52B) (protein)
chain: MKKFDFVIENYSKQKLFSSFLPGIAGKNGIPLWVFYVNRGQCIASFGIENKANSILEFKPAGQSHTDTPLKGFRTFIKVDGRYYEPFSELTNFKREMRINKNSLEIEERNNELGLKVKVIYFVLPNEDFAALVRRVEIENEDKYEKHIEIIDGLPEVIPYGVSNGLYKEMGYTARAWMHVYNYEKKVPFYSVRTTIGDLEIVEEINNGYFYFASSGDELLEVIYDKNVLFGNSTSLQVPLVFKELGIKEVLRKEQYDENLLPSAFGVLERKLKDKVVINSMIGFSKEKGLINNNINTLKKDEYIISKKEEADLIVEELVSEIKTKTSNKLFDKYCEQNYLDNVLRGGYPLVFENKDGKVVYHIYSRKHGDLERDYNFFVLEAKKYSQGNGNFRDVAQNRRNDVIFHPEIEDFNLSMFVNLIQADGNNPLVVKGTRFKFEGDPSILDGVNEELKEFILNNYFTPGEILEKLKDKNVNEDEFVSKILYHSSQHEQAEFGEGYWIDHWTYLMDLVDTYKEIYPDKLQKTLFEKFEYKIYDSHAYVKPRKEKYKLYKGKVRQIAAVGESHEKLKIIQERGHNYLTDRNGNIYKTNMFEKLLLLAVNKFATLDPYGMGLEMEANKPGWNDALNGLPALFGSGMSETFELKRLINFMYEELKKYNKDIEVFEELQEFIQKIKVELENYFNDNDQFIYWDNVSNAKEEYRSKVFYSITGNKKKISKVELLAILKKMIKKLDEGIERAKNYGKGIYPTFFTYELVDYEVIDGVIIPKKFEVNVLPYFLEGIVRAFKVIDKDEKKKLYDFVKNSNIYDKKLKMYKTSESILNQPYSIGRIRAFTPGWLENESVFMHMEFKYLLELIKSDMLEEFYEDIKTALPPYMDYKVYGRSILENSSFIVSSANSNPNLHGQGFYARLSGSTAEFLSMWKYMFIGDKLFTLENNELTFTFEPKINKEFFENGVIEFKLFSKTKVKYVNPQLKEKIGRIEVFVDGKKFEIHGNKIKGELAHKLRNKKIDEVICYFE
As a reminder, the Km is the concentration of substrate that gives half-maximal velocity. The kcat is the number of substrate molecules converted per active site and unit of time at saturation. Usually kcat/Km stands for the turnover number divided by the Michaelis constant. In the case of B1, the Km amounted to 1570 ± 200 µM, the turnover number (kcat) is 7.61 ± 0.66 s⁻¹ and the kcat/Km worked out at 4850 M⁻¹ s⁻¹.
